For test [1], the target named is STAT3 (endogenous, in human cells and from lysed cancer cell lines) (human, UniProt P40763 2-770). As to the kind of experiment: cell-based or functional assay.
The target of test [2] is T1, Human STAT3 Protein (recombinant) (human, UniProt P40763 1-770).
T1 construct: also called recombinant STAT3
As to the kind of experiment: SPR, Biacore 3000.

Where “and” joins values, the source holds several entries; their conditions need not be identical. Identical values can stand only once.

B1: Anti-KRAS/Anti-STAT3 VHH (SBT-100 (SEQ ID NO: 1)) (VHH)
VHH: HVQLVESGGGSVQAGGSLRLSCAASGANGGRSCMGWFRQVPGKEREGVSGISTGGLITYYADSVKGRFTISQDNTKNTLYLQMNSLKPEDTAMYYCATSRFDCYRGSWFNRYMYNSWGQGTQVTVSS
B1: in test [1], the “IC50, STAT3 luciferase reporter assay in HEK 293 cells after IL-6 stimulation” value was 2.68 µg/mL and 0.18 µM.

B2: Anti-KRAS VHH (SBT-102 (SEQ ID NO: 2)) (VHH)
VHH: EVQLVESGGGSVQTGGSLRLSCAVSGNIGSSYCMGWFRQAPGKKREAVARIVRDGATGYADYVKGRFTISRDSAKNTLYLQMNRLIPEDTAIYYCAADLPPGCLTQAIWNFGYRGQGTLVTVSS
Take B2: the binding result in test [2] was “no binding”.

The values above are taken from US20240101652A1 (SINGH BIOTECHNOLOGY, published 2024).
